From US20160297884A1 (Pfizer, published 2016)
Where a chain is given by its changes, count along the chain named.

T1: Human BCMA (human, UniProt Q02223 1-54, limits assumed)
T1 construct: Soluble analyte in SPR; construct not described; also called huBCMA; B-cell maturation antigen
T1 sequence (looked up): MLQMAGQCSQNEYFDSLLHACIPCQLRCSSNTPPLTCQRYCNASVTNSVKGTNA

T2: Human BCMA (human, UniProt Q02223 1-54, limits assumed)
T2 construct: also called huBCMA; B-cell maturation antigen
T2 sequence (looked up): T1 sequence (looked up)

B1: L3.PY/H2.DY (antibody, V domains shown)
VH: EVQLLESGGGLVQPGGSLRLSCAASGFTFGSYAMTWVRQAPGKGLEWVSAIDYSGGNTFYADSVKGRFTISRDNSKNTLYLQMNSLRAEDTAVYYCARVSPIASGMDYWGQGTLVTVSS
VL: EIVLTQSPGTLSLSPGERATLSCRASQSVSSSYLAWYQQKPGQAPRLLIYGASSRATGIPDRFSGSGSGTDFTLTISRLEPEDFAVYYCQHYPYPPSFTFGQGTKVEIK
notes: IgG
B2: L3.PY/H2.QL (antibody, V domains shown)
VH: B1 VH with D52S, Y53G, S63Q, V64L
VL: B1 VL
notes: IgG
B3: L3.PY/H2.LT (antibody, V domains shown)
VH: B1 VH with D52S, Y53L, S54T
VL: B1 VL
notes: IgG
B4: L3.PY/H2.HA (antibody, V domains shown)
VH: B1 VH with D52S, Y53H, S54A
VL: B1 VL
notes: IgG
B5: COMBO_Rd4_0.6nM_C17 (antibody, V domains shown)
VH: EVQLLESGGGLVQPGGSLRLSCAASGFTFSSYPMSWVRQAPGKGLEWVSAIGGSGGSLPYADSVKGRFTISRDNSKNTLYLQMNSLRAEDTAVYYCARYWPMDIWGQGTLVTVSS
VL: EIVLTQSPGTLSLSPGERATLSCRASQGISSTYLAWYQQKPGQAPRLLMYDASIRATGIPDRFSGSGSGTDFTLTISRLEPEDFAVYYCQQYAYWPLTFGQGTKVEIK
notes: IgG
B6: A02_Rd4_0.6nM_C18 (antibody, V domains shown)
VH: B5 VH with P33A, S35N, I51V, G52L, G53D, L58T, P59Y, D103S, I104L
VL: B5 VL with G28S, I29V, S31E, T32L, A93F, Y94G
notes: IgG
B7: COMBO_Rd4_0.6nM_C22 (antibody, V domains shown)
VH: B5 VH with P33A, S35N, G52S, G53D, L58R, P59W, A97T
VL: B5 VL with Q27V, G28R, I29V, A93M, Y94K
notes: IgG; also called COM22
B8: COMBO_Rd4_6nM_C12 (antibody, V domains shown)
VH: EVQLLESGGGLVQPGGSLRLSCAASGFTFSSYPMSWVRQAPGKGLEWVSAALGSGGSTYYADSVKGRFTISRDNSKNTLYLQMNSLRAEDTAVYYCARYWPMDSWGQGTLVTVS
VL: B5 VL with G28S, I29V, S31A, T32S, A93M, Y94S
notes: IgG
B9: COMBO_Rd4_6nM_C22 (antibody, V domains shown)
VH: B5 VH with P33A, S35N, I51C, G52L, G53D, L58T, P59Y, I104S
VL: B5 VL with G28S, I29V, T32S, A93Q, Y94G
notes: IgG
B10: COMBO_Rd4_0.6nM_C20 (antibody, V domains shown)
VH: B5 VH with I104S
VL: B5 VL with G28S, I29V, S31Y, T32L, A93M, Y94E
notes: IgG
B11: COMBO_Rd4_6nM_C08 (antibody, V domains shown)
VH: B5 VH with G56T, S57W, L58T, P59Y, I104S
VL: B5 VL with G28S, I29V, T32S, A93Q, Y94K
notes: IgG
B12: P5C1_VHVL (antibody, V domains shown)
VH: B5 VH with L58T, P59Y, I104S
VL: B5 VL with G28S, I29V, M49I, I54S, T57P, A93S, Y94T, W95S
notes: IgG; also called PC1
B13: P5A2_VHVL (antibody, V domains shown)
VH: B5 VH with P33A, S35N, G52S, G53D, L58T, P59Y
VL: B5 VL with G28S, I29V, T32S, A93G, Y94S
notes: IgG
B14: COMBO_Rd4_0.6nM_C23 (antibody, V domains shown)
VH: B5 VH with I51L, G52F, L58T, P59Y, I104S
VL: B5 VL with A25P, S26R, G28S, I29V, T32S, A93Q, Y94D
notes: IgG
B15: COMBO_Rd4_6nM_C07 (antibody, V domains shown)
VH: B5 VH with D103A, I104D
VL: B5 VL with G28P, T32S, A93Q, Y94G
notes: IgG
B16: COMBO_Rd4_6nM_C10 (antibody, V domains shown)
VH: B5 VH with L58I, P59H, I104S
VL: B5 VL with G28S, I29V, T32S, L34W, A35G, A93Q, Y94C
notes: IgG
B17: COMBO_Rd4_6nM_C09 (antibody, V domains shown)
VH: B5 VH with G52F, G53A, L58T, P59Y, I104S
VL: B5 VL with G28S, I29V, S31A, T32Q, A93Q, Y94A
notes: IgG
B18: COMBO_Rd4_6nM_C02 (antibody, V domains shown)
VH: B5 VH with P33A, S35N, G52S, G53D, S57F, L58V, P59Y, I104S
VL: B5 VL with G28S, I29V, T32S, A93E, Y94F
notes: IgG
B19: COMBO_Rd4_0.6nM_C30 (antibody, V domains shown)
VH: B5 VH with L58T, P59Y, I104S
VL: B5 VL with G28S, I29V, S31Y, T32M, M49I, A93K, Y94S
notes: IgG
B20: COMBO_Rd4_0.6nM_C29 (antibody, V domains shown)
VH: B5 VH
VL: B5 VL with G28S, I29V, T32S, A93Q, Y94S
notes: IgG
B21: COMBO_Rd4_6nM_C21 (antibody, V domains shown)
VH: B5 VH with I104S
VL: B5 VL with G28S, I29V, S31A, T32A, A93M, Y94C
notes: IgG
B22: COMBO_Rd4_6nM_C11 (antibody, V domains shown)
VH: B5 VH with P59G, I104S
VL: B5 VL with G28S, I29V, S31P, T32L, A93K, Y94A
notes: IgG
B23: COMBO_Rd4_6nM_C25 (antibody, V domains shown)
VH: B5 VH with L58T, P59Y, I104P
VL: B5 VL with G28S, I29V, T32P, A93Q, Y94S
notes: IgG

Target: T1, Human BCMA
Experiment: SPR, IgG immobilised, 37 C
Experimental: (§1) All experiments were performed on a Bio-Rad Proteon XPR36 surface Plasmon resonance biosensor (Bio-Rad, Hercules, Calif.). […] The analysis temperature for the immobilization was 25° C. and the running buffer was HBS-T+(10 mM HEPES, 150 mM NaCl, 0.05% Tween-20, pH 7.4). Channels were activated in the analyte (horizontal) direction by injecting a mixture of 1 mM ECD and 0.25 mM NHS for 3 minutes at a flow rate of 30 μL/min. IgGs were immobilized on the activated spots by injecting them in the ligand (vertical) direction at 20 μg/mL in 10 mM Acetate pH 4.5 buffer for 1.5 minutes at […]. The activated surfaces were blocked by injecting 1M ethanolamine, pH 8.5 in the analyte direction for 3 minutes at 30 μL/min.
(§2) The analysis temperature for the BCMA binding analysis was 37° C. or 25° C. in a running buffer of HBS-T+, supplemented with 1 mg/mL BSA. A kinetic titration method was employed for the interaction analysis as described in Abdiche, et al. Human BCMA (huBCMA) or cynomolgus monkey BCMA (cyBCMA) analyte was injected in the analyte direction using a series of injections from low to high concentration. The concentrations used were 0.08 nM, 0.4 nM, 2 nM, 10 nM and 50 nM (a 5-membered series, with a 5-fold dilution factor and top concentration of 50 nM). The association time for a given analyte dilution was two minutes. Immediately after the 50 nM BCMA injection, dissociation was monitored for 2 hours.
(§3) The sensorgrams were double-referenced and fit to a 1:1 Langmuir with mass transport kinetic titration model in BIAevaluation Software version 4.1.1 (GE Lifesciences, Piscataway, N.J.).

| Binder | Kd [nM] | T ½ [min] | koff [s⁻¹] | kon [M⁻¹ s⁻¹] |
| --- | --- | --- | --- | --- |
| B1 | 0.53 | 8.37 | 0.00138 | 2.6e+06 |
| B2 | 0.82 | 5.31 | 0.00218 | 2.64e+06 |
| B3 | 0.54 | 8.95 | 0.00129 | 2.4e+06 |
| B4 | 0.6 | 7.89 | 0.00147 | 2.43e+06 |

Target: T3, cynomolgus monkey BCMA (cynomolgus monkey, UniProt A0A2K5UD97 1-53)
T3 construct: Soluble analyte in SPR; construct not described; also called cyBCMA; Cyno BCMA
Experiment: SPR, IgG immobilised, 37 C
Experimental: as §1, §2, §3

T3 sequence (A0A2K5UD97 entry or part of it): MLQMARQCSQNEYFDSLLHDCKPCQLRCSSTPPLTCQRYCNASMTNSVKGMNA

| Binder | Kd [nM] | T ½ [min] | koff [s⁻¹] | kon [M⁻¹ s⁻¹] |
| --- | --- | --- | --- | --- |
| B1 | 2.76 | 1.87 | 0.00618 | 2.24e+06 |
| B2 | 6.16 | 0.91 | 0.0126 | 2.05e+06 |
| B3 | 3.63 | 1.53 | 0.00757 | 2.09e+06 |
| B4 | 3.79 | 1.53 | 0.00755 | 1.99e+06 |

Target: T4, Cynomolgus monkey BCMA (cynomolgus monkey)
T4 construct: Soluble analyte in SPR; also called cyBCMA; Cyno BCMA
Experiment: SPR, IgG immobilised, cyno BCMA analyte
Experimental: as §1, §2, §3

| Binder | Kd [nM] | koff [s⁻¹] | kon [M⁻¹ s⁻¹] |
| --- | --- | --- | --- |
| B5 | 0.33 | 0.00101 | 3.06e+06 |
| B6 | 0.197 | 0.000639 | 3.24e+06 |
| B7 | 0.05 | 6.66e-05 | 1.34e+06 |
| B8 | 0.148 | 0.000486 | 3.29e+06 |
| B9 | 0.972 | 0.00165 | 1.7e+06 |
| B10 | 0.092 | 0.000284 | 3.09e+06 |
| B11 | 0.14 | 0.000428 | 3.06e+06 |
| B12 | 15.2 | 0.0538 | 3.53e+06 |
| B13 | 10.2 | 0.0164 | 1.61e+06 |
| B14 | 0.189 | 0.000531 | 2.81e+06 |
| B15 | 0.237 | 0.000934 | 3.94e+06 |
| B16 | 0.105 | 0.00016 | 1.52e+06 |
| B17 | 0.134 | 0.000318 | 2.37e+06 |
| B18 | 1.71 | 0.00136 | 795000 |
| B19 | 0.481 | 0.000808 | 1.68e+06 |
| B20 | 0.084 | 0.000336 | 4e+06 |
| B21 | 0.078 | 0.000248 | 3.17e+06 |
| B22 | 0.156 | 0.000412 | 2.64e+06 |
| B23 | 0.079 | 0.000226 | 2.85e+06 |

Target: T2, Human BCMA
Experiment: SPR, IgG immobilised, human BCMA analyte
Experimental: as §1, §2, §3

| Binder | Kd [nM] | koff [s⁻¹] | kon [M⁻¹ s⁻¹] |
| --- | --- | --- | --- |
| B5 | 0.092 | 0.000801 | 8.68e+06 |
| B6 | 0.048 | 0.000229 | 4.73e+06 |
| B7 | 0.036 | 7.15e-05 | 1.97e+06 |
| B8 | 0.02 | 0.00027 | 1.38e+07 |
| B9 | 0.256 | 0.000775 | 3.03e+06 |
| B10 | 0.019 | 0.000146 | 7.65e+06 |
| B11 | 0.019 | 0.000169 | 8.99e+06 |
| B12 | 5.99 | 0.0692 | 1.16e+07 |
| B13 | 5.57 | 0.0387 | 6.96e+06 |
| B14 | 0.028 | 0.00021 | 7.39e+06 |
| B15 | 0.035 | 0.000371 | 1.05e+07 |
| B16 | 0.018 | 9.72e-05 | 5.47e+06 |
| B17 | 0.016 | 0.000143 | 8.85e+06 |
| B18 | 0.422 | 0.000443 | 1.05e+06 |
| B19 | 0.065 | 0.000282 | 4.35e+06 |
| B20 | 0.019 | 0.000277 | 1.47e+07 |
| B21 | 0.006 | 7.34e-05 | 1.17e+07 |
| B22 | 0.018 | 0.000124 | 6.74e+06 |
| B23 | 0.014 | 0.000113 | 7.98e+06 |
